From patent publication US20030027764A1

Legend:
Test in all cases: cell-based or functional assay
[1] = target: Taipoxin (Oxyuranus scutellatus PLA2) (Oxyuranus scutellatus) (UniProt P00614)
[2] = target: daboiatoxin, the major PLA2 toxin of Daboia russelli siamensis venom (Daboia russelli siamensis)
[3] = target: Bee venom (Apis melifera) PLA2 (Apis mellifera) (UniProt P00630)
Sequence of Bee venom (Apis melifera) PLA2 (Apis mellifera) (P00630 34-167): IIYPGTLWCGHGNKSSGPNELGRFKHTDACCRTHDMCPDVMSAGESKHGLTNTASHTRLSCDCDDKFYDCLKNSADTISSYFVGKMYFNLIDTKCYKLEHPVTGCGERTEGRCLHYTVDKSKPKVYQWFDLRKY

Sequence of recombinant Python Antitoxic Factor (PAF), later renamed Phospholipase Inhibitor from Python (PIP), (Q9I8P7 20-201): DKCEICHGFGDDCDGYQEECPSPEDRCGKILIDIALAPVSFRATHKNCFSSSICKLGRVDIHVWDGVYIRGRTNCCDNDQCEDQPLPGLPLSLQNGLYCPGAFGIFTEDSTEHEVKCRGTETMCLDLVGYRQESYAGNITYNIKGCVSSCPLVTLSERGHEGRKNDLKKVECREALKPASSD
Sequence of Taipoxin (Oxyuranus scutellatus PLA2) (Oxyuranus scutellatus) (P00614 whole entry, chain 1 of 3): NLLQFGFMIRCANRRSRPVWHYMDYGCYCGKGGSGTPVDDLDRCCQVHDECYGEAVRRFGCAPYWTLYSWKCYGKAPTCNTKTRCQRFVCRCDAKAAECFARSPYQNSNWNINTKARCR
Sequence of Taipoxin (Oxyuranus scutellatus PLA2) (Oxyuranus scutellatus) (P00615 28-145, chain 2 of 3, further chain): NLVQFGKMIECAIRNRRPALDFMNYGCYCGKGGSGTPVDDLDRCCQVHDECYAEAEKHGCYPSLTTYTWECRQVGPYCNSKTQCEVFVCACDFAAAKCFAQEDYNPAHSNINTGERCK
Sequence of Taipoxin (Oxyuranus scutellatus PLA2) (Oxyuranus scutellatus) (P00616 20-152, chain 3 of 3, further chain): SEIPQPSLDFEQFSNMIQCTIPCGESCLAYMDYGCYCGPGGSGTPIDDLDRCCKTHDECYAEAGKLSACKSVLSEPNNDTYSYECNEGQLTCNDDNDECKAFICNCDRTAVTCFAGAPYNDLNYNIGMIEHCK

Substance: recombinant Python Antitoxic Factor (PAF), later renamed Phospholipase Inhibitor from Python (PIP), (from UniProt Q9I8P7 20-201)
- % Neutralisation [1]: 50%
- % Inhibition of paw oedema; DbTx (1 µg) + 50 µg PIP [2]: 89.2%
- % Inhibition of paw oedema; DbTx (1 µg) + 100 µg PIP [2]: 92.2%
- % Inhibition of paw oedema; Bee venom PLA2 (1 µg) + 50 µg PIP [3]: 39.9%
- % Inhibition of paw oedema; Bee venom PLA2 (1 µg) + 100 µg PIP [3]: 78.1%

Substance: anti-inflammatory peptide-2 from Sigma
- % Inhibition of paw oedema; DbTx (1 µg) + 100 µg AIP-2 [2]: 35.3%
- % Inhibition of paw oedema; Bee venom PLA2 (1 µg) + 100 µg AIP-2 [3]: 33.6%
